Assays:
[1] = target: T1, Protein A (native, biotinylated) (Staphylococcus aureus, UniProt P02976 P02976:37-485); assay: pulldown; magnetic bead binding; retained and even improved vs full length; 10 mM MgCl2, 21 C; details: tags: biotin, immobilized on streptavidin Dynabeads M-280; Sigma-Aldrich P2165; label: fluorescein
Procedure: (§1) The binding experiments were carried out under the SELEX conditions. 2.5-3 ×10^7 target-modified magnetic beads and ~55 pmol of fluorescein-labeled aptamer ssDNA in binding buffer (100 mM NaCl, 20 mM Tris-HCl, pH 7.6, 10 mM MgCl_2, 5 mM KCl, 1 mM CaCl_2) were employed for each experiment. The target-modified magnetic beads were prepared as a preliminary to the binding experiments, wherein Dynabeads® M-280 Streptavidin (Invitrogen, UK) were used in order to immobilize native, biotinylated protein A from *Staphylococcus aureus* (P2165, Sigma-Aldrich, Germany). Before each binding reaction the target-modified magnetic beads were washed several times in binding buffer and the aptamer ssDNA was thermally equilibrated by incubation at 90° C. for 8 min, on ice for 10 min and then converted to RT for ~5 min. The prepared aptamer ssDNA and the washed target-modified magnetic beads were then brought together for binding and incubated for 30 min at 21° C., while shaking. The non-bound ssDNA was removed and the binding complexes were washed several times in binding buffer. Thereafter, the target-bound ssDNA was eluted by means of heat by incubation of the binding complexes in binding buffer at 95° C. for 10 min, while shaking. […] The amount of ssDNA eluted could be quantified on the basis of the fluorescein labeling of the aptamer ssDNA and by means of a calibration curve. […]

Protein A (native) = Protein A (native) (UniProt P02976 P02976:37-485); assay: SPR; steady-state avidity (bivalent analyte); 100 mM NaCl, 20 mM Tris-HCl pH 7.6, 10 mM MgCl2, 5 mM KCl, 1 mM CaCl2, 0.005% SP20; details: tags: Sigma-Aldrich P3838; label: 3'-biotin
Description: (§2) These changes are emitted as a measurable signal, expressed in resonance units (RU), and are proportional to the amount of target bound on the sensor surface. In the experiments presented here, non-specific ssDNA (SELEX library, 3'-biotinylated) was immobilized in the reference cell and ssDNA of the aptamer PA#2/8 (3'-biotinylated) was immobilized in the measurement cell. The target solution, comprising recombinant protein A (P7837, Sigma-Aldrich, Germany) or native protein A (P3838, Sigma-Aldrich, Germany) in binding buffer (100 mM NaCl, 20 mM Tris-HCl, pH 7.6, 10 mM MgCl_2, 5 mM KCl, 1 mM CaCl_2) with 0.005% SP20, was passed over the prepared sensor surfaces at a flow rate of 10 µl/min. […] The sensorgrams (FIG. 6, 8) show the double-referenced signal curve (measurement cell minus reference cell and buffer reference) during the binding and dissociation phase at different target concentrations in a range of 10 nM-5,000 nM protein A. During such a measurement series the 1,000 nM concentration of protein A was measured 3 times as a control. […]
(§3) From the binding data at the end of each binding phase with the different protein A concentrations a saturation curve was plotted (FIG. 7, 9) and the steady state affinity of the aptamer PA#2/8 for protein A was calculated from this. […]

Protein A (recombinant) = Protein A (recombinant) (UniProt P02976 P02976:37-485); assay: as above; details: tags: Sigma-Aldrich P7837; label: 3'-biotin
Description: as §2, §3

[2] = target: T1, Protein A (native, biotinylated); assay: pulldown; magnetic bead binding; negative result; 10 mM MgCl2, 21 C; details: tags: biotin, immobilized on streptavidin Dynabeads M-280; Sigma-Aldrich P2165; label: fluorescein
Procedure: as §1

[3] = target: T1, Protein A (native, biotinylated); assay: pulldown; magnetic bead binding; complete loss of binding; 10 mM MgCl2, 21 C; details: tags: biotin, immobilized on streptavidin Dynabeads M-280; Sigma-Aldrich P2165; label: fluorescein
Procedure: as §1

T1 sequence (P02976 37-485, one chain of several): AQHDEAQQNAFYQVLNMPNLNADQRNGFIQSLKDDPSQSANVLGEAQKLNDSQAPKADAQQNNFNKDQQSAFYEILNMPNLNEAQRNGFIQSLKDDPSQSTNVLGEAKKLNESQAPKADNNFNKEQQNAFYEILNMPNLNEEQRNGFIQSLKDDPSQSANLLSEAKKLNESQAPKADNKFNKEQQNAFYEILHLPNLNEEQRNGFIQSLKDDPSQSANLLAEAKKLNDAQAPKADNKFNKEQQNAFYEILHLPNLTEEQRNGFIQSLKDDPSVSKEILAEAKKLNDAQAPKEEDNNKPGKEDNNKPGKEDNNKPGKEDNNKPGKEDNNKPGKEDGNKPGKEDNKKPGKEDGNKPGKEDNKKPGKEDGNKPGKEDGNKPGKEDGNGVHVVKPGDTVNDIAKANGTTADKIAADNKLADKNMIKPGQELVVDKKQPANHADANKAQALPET
Protein A (recombinant), sequence (P02976 37-485, one chain of several): as above
Protein A (native), sequence (P02976 37-485, one chain of several): as above

B1: PA#2/8 [A1-58] (ssDNA)
DNA: ATACCAGCTTATTCAATTAGCAACATGAGGGGGATAGAGGGGGTGGGTTCTCTCGGCT
B1: binds [1].

B2: PA#2/8 (3'-biotin) (ssDNA)
DNA: ATACCAGCTTATTCAATTAGCAACATGAGGGGGATAGAGGGGGTGGGTTCTCTCGGCTACAATCGTAATCAGTTAG
Binder B2 has a Kd (Protein A (native)) of 75.3 nM and a Kd (Protein A (recombinant)) of 188 nM.

AGCAACATGAGGGGGATAGAGGGGGTGGGTTCTCTCGGCT (ssDNA) [PA#2/8CR40]: no binding [2].

B3: PA#2/8 [A19-76] (ssDNA)
DNA: AGCAACATGAGGGGGATAGAGGGGGTGGGTTCTCTCGGCTACAATCGTAATCAGTTAG
B3: no binding [3].

From US9353421, “Aptamers that are specific for immunoglobulin-binding cell wall proteins” (Helmholtz-Zentrum für Umweltforschung GmbH-UFZ)
